Target: p53-binding domain of human MdmX (N-MdmX, amino acids 22-110) (human) (UniProt O15151)
Experiment: ITC; ITC-200 at 25 °C; 19 injections of 2.0 µL of ~0.2 mM ligand into ~10–20 µM protein in the cell; one-set-of-binding-sites model

p53-binding domain of human MdmX (N-MdmX, amino acids 22-110) (human), sequence (O15151 22-110): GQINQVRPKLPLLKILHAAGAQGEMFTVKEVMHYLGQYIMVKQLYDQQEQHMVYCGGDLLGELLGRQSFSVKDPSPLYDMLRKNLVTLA

Kd: 360 nM
Substance: p53 transactivation domain peptide (p53p)
